Laboratory results taken from US20240101695A1 (University of California, published 2024).

T1: human CD138 (human, UniProt P18827 23-310)
T1 construct: whole, on cells; Endogenous antigen on MM.1S, MDA-MB-468 and SK-BR-3 cells; also called syndecan-1
T1 sequence (looked up): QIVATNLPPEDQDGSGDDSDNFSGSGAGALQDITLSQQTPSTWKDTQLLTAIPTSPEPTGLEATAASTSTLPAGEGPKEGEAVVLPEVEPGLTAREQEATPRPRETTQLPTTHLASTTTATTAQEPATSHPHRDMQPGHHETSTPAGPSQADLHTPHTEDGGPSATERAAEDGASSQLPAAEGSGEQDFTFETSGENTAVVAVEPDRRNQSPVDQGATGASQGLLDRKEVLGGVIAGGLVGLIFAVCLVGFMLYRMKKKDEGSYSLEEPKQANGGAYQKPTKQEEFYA

T2: human FcεRI (human, UniProt P12319 26-257)
T2 construct: whole, on cells; Multi-subunit receptor; In the PCA assay it is the humanized FcεRI of transgenic huFcεRI mice; also called huFcεRI
T2 sequence (looked up): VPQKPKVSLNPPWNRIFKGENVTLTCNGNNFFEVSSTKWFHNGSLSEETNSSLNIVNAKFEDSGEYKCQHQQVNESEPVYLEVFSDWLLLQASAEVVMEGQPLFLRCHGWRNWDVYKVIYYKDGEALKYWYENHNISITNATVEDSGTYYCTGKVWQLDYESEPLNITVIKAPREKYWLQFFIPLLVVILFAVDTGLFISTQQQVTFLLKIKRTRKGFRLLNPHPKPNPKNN


What was measured:
human CD138 = target: T1, human CD138; test: flow cytometry on MDA-MB-468 and SK-BR-3 cells expressing CD138
Experimental: Human triple negative breast cancer (TNBC) cells (MDA-MB-468) and human HER2/neu positive breast cancer cells (SK-BR-3) expressing CD138 were incubated with either IgE isotype control (non-targeting control) or anti-CD138 IgE. Antibody binding was detected using a PE-conjugated goat F(ab′)₂ anti-human κ antibody. Grey filled histograms represent cells incubated with secondary antibody only (“no antibody”). Empty black line histograms represent cells incubated with primary antibodies (IgE isotype control or anti-CD138 IgE).
(§1) Antigen binding of the anti-CD38 IgE, anti-CD138 IgE, and anti-TfR1 IgE antibodies was studied by flow cytometry using the human multiple myeloma (MM) cell line MM.1S purchased from the American Type Culture Collection (ATCC, Manassas, VA, USA; ATCC® CRL-2974™). […] Binding to FcεRI was also assessed by flow cytometry using the rat basophilic leukemia cell line RBL SX-38 expressing human FcεRI¹¹³ kindly provided by Dr. Jean-Pierre Kinet (Beth Israel Deaconess Medical Center, Boston, MA, USA). […] Samples were analyzed on a BD LSRII analytical flow cytometer (BD Biosciences, San Jose, CA, USA) and 10,000 events were collected. […]

human FcεRI = target: T2, human FcεRI; test: flow cytometry on RBL SX-38 cells expressing human FcεRI
Experimental: Human MM cells (MM.1S) expressing CD138 were incubated with either IgE isotype control (non-targeting control), anti-CD138 IgG1, or anti-CD138 IgE. The rat basophilic leukemia cells RBL SX-38 expressing human FcεRI were incubated with either IgE isotype control, anti-CD138 IgG1, or anti-CD138 IgE. Antibody binding was detected using a PE-conjugated goat F(ab′)₂ anti-human κ antibody. Grey line histograms represent cells incubated with secondary antibody only (“no antibody”). Black line histograms represent cells incubated with primary antibodies (IgE isotype control, anti-CD138 IgG1, or anti-CD138 IgE).
Human MM cells (MM.1S) expressing TfR1 were incubated with either IgE isotype control (non-targeting control) or anti-TfR1 IgE. […] Antibody binding was detected using a PE-conjugated mouse IgG1 anti-human IgE antibody. […]
Antigen binding of the anti-CD38 IgE, anti-CD138 IgE, and anti-TfR1 IgE antibodies was studied by flow cytometry using the human multiple myeloma (MM) cell line MM.1S purchased from the American Type Culture Collection (ATCC, Manassas, VA, USA; ATCC® CRL-2974™). […] Binding to FcεRI was also assessed by flow cytometry using the rat basophilic leukemia cell line RBL SX-38 expressing human FcεRI¹¹³ kindly provided by Dr. Jean-Pierre Kinet (Beth Israel Deaconess Medical Center, Boston, MA, USA). […]

[1] = target: T3, human transferrin receptor 1 (TfR1) (human, UniProt P02786 1-760); test: flow cytometry on MM.1S cells expressing TfR1
T3 construct: whole, on cells; Endogenous antigen on MM.1S cells; also called transferrin receptor protein 1; CD71
Experimental: Human MM cells (MM.1S) expressing TfR1 were incubated with either IgE isotype control (non-targeting control) or anti-TfR1 IgE. The rat basophilic leukemia cells RBL SX-38 expressing human FcεRI were incubated with either IgE isotype control or anti-TfR1 IgE. Antibody binding was detected using a PE-conjugated mouse IgG1 anti-human IgE antibody. Grey filled histograms represent cells incubated with secondary antibody only (“no antibody”). Empty black line histograms represent cells incubated with primary antibodies (IgE isotype control or anti-TfR1 IgE).
as §1

T3 sequence (P02786 whole entry): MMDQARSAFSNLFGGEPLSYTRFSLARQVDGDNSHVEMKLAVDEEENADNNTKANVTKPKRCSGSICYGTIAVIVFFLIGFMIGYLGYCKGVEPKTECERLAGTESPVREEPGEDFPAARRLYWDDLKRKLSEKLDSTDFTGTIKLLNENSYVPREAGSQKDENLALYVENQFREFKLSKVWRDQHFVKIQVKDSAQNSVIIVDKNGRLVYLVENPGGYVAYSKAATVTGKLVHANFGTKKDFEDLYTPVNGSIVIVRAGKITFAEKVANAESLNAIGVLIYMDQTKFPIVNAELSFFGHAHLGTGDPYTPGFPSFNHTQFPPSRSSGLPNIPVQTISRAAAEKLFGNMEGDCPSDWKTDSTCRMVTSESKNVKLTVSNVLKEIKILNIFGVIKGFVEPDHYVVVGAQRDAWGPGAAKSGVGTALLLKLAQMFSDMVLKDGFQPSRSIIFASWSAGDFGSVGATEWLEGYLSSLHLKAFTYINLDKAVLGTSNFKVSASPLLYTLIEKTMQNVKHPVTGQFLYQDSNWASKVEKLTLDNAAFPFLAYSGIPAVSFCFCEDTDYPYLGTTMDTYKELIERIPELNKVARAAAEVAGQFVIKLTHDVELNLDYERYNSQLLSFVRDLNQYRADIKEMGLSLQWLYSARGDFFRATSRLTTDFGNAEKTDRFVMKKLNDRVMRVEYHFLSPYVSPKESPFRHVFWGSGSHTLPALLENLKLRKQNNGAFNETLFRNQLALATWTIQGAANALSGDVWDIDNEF

Binder	binding result (human CD138)	binding result (human FcεRI)	binding result [1]
anti-CD138 IgE (antibody, Mouse/human chimeric IgE; also called CD138-Targeted Antibody; anti-CD138 IgE antibody) heavy: QVQLQQSGSELMMPGASVKISCKATGYTFSNYWIEWVKQRPGHGLEWIGEILPGTGRTIYNEKFKGKATFTADISSNTVQMQLSSLTSEDSAVYYCARRDYYGNFYYAMDYWGQGTSVTVSSASTQSPSVFPLTRCCKNIPSNATSVTLGCLATGYFPEPVMVTWDTGSLNGTTMTLPATTLTLSGHYATISLLTVSGAWAKQMFTCRVAHTPSSTDWVDNKTFSVCSRDFTPPTVKILQSSCDGGGHFPPTIQLLCLVSGYTPGTINITWLEDGQVMDVDLSTASTTQEGELASTQSELTLSQKHWLSDRTYTCQVTYQGHTFEDSTKKCADSNPRGVSAYLSRPSPFDLFIRKSPTITCLVVDLAPSKGTVNLTWSRASGKPVNHSTRKEEKQRNGTLTVTSTLPVGTRDWIEGETYQCRVTHPHLPRALMRSTTKTSGPRAAPEVYAFATPEWPGSRDKRTLACLIQNFMPEDISVQWLHNEVQLPDARHSTTQPRKTKGSGFFVFSRLEVTRAEWEQKDEFICRAVHEAASPSQTVQRAVSVNPGK light: DIQMTQSTSSLSASLGDRVTISCSASQGINNYLNWYQQKPDGTVELLIYYTSTLQSGVPSRFSGSGSGTDYSLTISNLEPEDIGTYYCQQYSKLPRTFGGGTKLEIKRTVAAPSVFIFPPSDEQLKSGTASVVCLLNNFYPREAKVQWKVDNALQSGNSQESVTEQDSKDSTYSLSSTLTLSKADYEKHKVYACEVTHQGLSSPVTKSFNRGEC	binds	binds	
anti-TfR1 IgE (antibody, Mouse/human chimeric IgE; also called TfR1-Targeted Antibody; anti-TfR1 IgE antibody) heavy: EVQLQQSGPELVKPGASMKISCKASGYSFTGYTMNWVKQSHGENLEWIGRINPHNGGTDYNQKFKDKAPLTVDKSSNTAYMELLSLTSGDSAVYYCARGYYYYSLDYWGQGTSVTVSSASTQSPSVFPLTRCCKNIPSNATSVTLGCLATGYFPEPVMVTWDTGSLNGTTMTLPATTLTLSGHYATISLLTVSGAWAKQMFTCRVAHTPSSTDWVDNKTFSVCSRDFTPPTVKILQSSCDGGGHFPPTIQLLCLVSGYTPGTINITWLEDGQVMDVDLSTASTTQEGELASTQSELTLSQKHWLSDRTYTCQVTYQGHTFEDSTKKCADSNPRGVSAYLSRPSPFDLFIRKSPTITCLVVDLAPSKGTVNLTWSRASGKPVNHSTRKEEKQRNGTLTVTSTLPVGTRDWIEGETYQCRVTHPHLPRALMRSTTKTSGPRAAPEVYAFATPEWPGSRDKRTLACLIQNFMPEDISVQWLHNEVQLPDARHSTTQPRKTKGSGFFVFSRLEVTRAEWEQKDEFICRAVHEAASPSQTVQRAVSVNPGK light: QIVLTQSPAIMSVSPGEKVTMTCSASSSIRYIHWYQQRPGTSPKRWIYDTSNLASGVPARFSGSGSGTSYSLTISSMEAEDAATYYCHQRNSYPWTFGGGTRLEIRRTVAAPSVFIFPPSDEQLKSGTASVVCLLNNFYPREAKVQWKVDNALQSGNSQESVTEQDSKDSTYSLSSTLTLSKADYEKHKVYACEVTHQGLSSPVTKSFNRGEC		binds	binds
